Experimental data as given in patent US20150064134A1.

Columns and labels:
Assay in all cases: cell-based or functional assay
EGFR(L861Q)(h) (human) = EGFR(L861Q)(h) (human) (UniProt P00533)
EphA5(h) (human) = biological target: T1, EphA5(h) (human) (UniProt P54756)
T1 sequence (looked up): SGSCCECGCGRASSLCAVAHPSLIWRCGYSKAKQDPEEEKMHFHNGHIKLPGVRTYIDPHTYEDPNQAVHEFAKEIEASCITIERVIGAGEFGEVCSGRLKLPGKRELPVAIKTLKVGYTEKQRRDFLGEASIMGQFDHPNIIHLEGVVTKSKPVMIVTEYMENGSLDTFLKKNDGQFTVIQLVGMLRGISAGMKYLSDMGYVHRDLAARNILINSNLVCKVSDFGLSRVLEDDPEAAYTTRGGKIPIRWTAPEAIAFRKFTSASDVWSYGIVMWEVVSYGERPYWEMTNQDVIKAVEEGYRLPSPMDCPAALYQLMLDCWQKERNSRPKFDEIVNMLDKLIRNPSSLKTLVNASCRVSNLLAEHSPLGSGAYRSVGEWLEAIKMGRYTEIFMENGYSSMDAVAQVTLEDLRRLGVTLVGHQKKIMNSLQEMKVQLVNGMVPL

EphA7(h) (human) = EphA7(h) (human) (UniProt Q15375)
FGFR1(h) (human) = FGFR1(h) (human) (UniProt P11362)
FGFR1(h) (human), sequence (P11362 456-765 limits assumed): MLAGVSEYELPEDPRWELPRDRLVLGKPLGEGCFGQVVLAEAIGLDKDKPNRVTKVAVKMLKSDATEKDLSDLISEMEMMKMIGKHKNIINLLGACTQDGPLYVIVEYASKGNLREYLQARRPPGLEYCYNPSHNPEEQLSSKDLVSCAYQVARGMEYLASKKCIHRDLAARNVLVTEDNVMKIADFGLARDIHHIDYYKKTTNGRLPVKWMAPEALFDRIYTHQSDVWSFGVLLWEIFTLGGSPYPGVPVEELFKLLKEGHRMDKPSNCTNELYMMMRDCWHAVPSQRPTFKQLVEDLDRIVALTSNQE

Flt3(D835Y)(h) (human) = biological target: T2, Flt3(D835Y)(h) (human) (UniProt P36888)
T2 sequence (looked up): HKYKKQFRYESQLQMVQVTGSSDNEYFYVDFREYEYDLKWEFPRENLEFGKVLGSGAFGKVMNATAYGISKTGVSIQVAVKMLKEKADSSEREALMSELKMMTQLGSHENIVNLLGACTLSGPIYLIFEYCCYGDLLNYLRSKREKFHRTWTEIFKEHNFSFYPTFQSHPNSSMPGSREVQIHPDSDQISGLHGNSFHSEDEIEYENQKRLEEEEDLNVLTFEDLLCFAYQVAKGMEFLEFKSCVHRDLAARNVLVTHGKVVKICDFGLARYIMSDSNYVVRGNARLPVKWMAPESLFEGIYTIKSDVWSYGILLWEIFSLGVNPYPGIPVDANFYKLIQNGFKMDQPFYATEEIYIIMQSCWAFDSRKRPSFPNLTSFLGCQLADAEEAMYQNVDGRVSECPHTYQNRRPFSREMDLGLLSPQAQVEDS

Flt4(h) (human) = Flt4(h) (human) (UniProt P35916)
Flt4(h) (human), sequence (P35916 800-1363 limits assumed): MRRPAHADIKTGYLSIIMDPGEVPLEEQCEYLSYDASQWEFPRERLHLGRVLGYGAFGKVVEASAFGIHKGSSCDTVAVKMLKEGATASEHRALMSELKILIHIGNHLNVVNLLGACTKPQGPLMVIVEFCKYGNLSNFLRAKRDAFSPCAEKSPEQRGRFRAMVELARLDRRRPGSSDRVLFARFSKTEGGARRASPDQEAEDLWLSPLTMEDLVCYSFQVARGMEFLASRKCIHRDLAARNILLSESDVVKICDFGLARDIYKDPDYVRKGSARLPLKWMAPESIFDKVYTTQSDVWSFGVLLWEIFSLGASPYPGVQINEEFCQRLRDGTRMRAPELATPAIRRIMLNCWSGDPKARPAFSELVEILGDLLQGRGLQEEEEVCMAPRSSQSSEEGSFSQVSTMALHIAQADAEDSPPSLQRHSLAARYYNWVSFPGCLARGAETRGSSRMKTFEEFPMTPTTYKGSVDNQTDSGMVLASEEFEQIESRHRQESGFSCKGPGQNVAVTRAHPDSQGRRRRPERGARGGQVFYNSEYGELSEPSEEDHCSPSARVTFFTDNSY

IRAK1(h) (human) = IRAK1(h) (human) (UniProt P51617)
KDR(h) (human) = KDR(h) (human) (UniProt P35968)
MST3(h) (human) = MST3(h) (human) (UniProt Q9Y6E0)
NLK(h) (human) = biological target: T3, NLK(h) (human) (UniProt Q9UBE8)
T3 sequence (looked up): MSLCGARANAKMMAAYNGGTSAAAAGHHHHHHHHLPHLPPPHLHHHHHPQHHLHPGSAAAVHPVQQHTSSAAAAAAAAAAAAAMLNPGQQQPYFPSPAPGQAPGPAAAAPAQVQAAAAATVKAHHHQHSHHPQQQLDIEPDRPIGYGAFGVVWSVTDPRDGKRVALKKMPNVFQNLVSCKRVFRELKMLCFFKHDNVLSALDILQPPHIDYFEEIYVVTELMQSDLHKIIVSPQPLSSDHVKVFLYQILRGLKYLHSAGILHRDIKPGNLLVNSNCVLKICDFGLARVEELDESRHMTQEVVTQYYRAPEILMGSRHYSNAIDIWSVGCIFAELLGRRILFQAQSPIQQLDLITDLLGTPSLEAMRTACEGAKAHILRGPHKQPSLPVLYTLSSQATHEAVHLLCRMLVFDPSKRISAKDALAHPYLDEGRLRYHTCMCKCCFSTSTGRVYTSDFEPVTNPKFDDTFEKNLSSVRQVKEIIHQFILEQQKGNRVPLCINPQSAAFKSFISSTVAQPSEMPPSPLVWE

PAK4(h) (human) = PAK4(h) (human) (UniProt O96013)
PKBα(h) (human) = PKBα(h) (human) (UniProt P31749)
PKBα(h) (human), sequence (P31749 whole entry): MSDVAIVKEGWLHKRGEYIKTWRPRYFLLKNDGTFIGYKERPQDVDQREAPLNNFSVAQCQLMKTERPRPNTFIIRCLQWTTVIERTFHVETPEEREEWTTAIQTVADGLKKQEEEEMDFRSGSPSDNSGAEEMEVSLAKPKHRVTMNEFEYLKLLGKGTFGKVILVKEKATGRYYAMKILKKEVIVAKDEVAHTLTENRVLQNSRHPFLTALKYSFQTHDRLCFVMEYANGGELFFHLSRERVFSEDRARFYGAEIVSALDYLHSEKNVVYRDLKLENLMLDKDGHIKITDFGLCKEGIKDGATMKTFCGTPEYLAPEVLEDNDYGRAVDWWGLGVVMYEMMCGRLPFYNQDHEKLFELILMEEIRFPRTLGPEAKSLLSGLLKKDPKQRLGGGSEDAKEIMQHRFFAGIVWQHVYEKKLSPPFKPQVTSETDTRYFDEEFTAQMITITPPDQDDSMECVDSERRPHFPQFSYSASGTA

PKCα(h) (human) = PKCα(h) (human) (UniProt P17252)
PKCγ(h) (human) = PKCγ(h) (human) (UniProt P05129)
PKCθ(h) (human) = PKCθ(h) (human) (UniProt Q04759)
Ret(V804M)(h) (human) = biological target: T4, Ret(V804M)(h) (human) (UniProt P07949)
T4 sequence (looked up): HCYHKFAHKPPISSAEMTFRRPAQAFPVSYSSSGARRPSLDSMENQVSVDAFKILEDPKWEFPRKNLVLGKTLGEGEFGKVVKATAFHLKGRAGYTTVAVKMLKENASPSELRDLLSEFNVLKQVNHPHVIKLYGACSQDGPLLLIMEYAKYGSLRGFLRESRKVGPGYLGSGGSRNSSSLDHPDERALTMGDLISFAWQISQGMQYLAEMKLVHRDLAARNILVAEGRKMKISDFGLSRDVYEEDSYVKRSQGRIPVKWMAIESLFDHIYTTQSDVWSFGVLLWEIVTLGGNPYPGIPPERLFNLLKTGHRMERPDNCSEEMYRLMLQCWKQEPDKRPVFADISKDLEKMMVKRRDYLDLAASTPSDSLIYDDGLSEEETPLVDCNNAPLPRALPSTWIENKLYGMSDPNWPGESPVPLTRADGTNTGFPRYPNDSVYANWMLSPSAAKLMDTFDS

Src(T341M)(h) (human) = Src(T341M)(h) (human) (UniProt P12931)
TSSK1(h) (human) = biological target: T5, TSSK1(h) (human) (UniProt Q9BXA7)
T5 sequence (looked up): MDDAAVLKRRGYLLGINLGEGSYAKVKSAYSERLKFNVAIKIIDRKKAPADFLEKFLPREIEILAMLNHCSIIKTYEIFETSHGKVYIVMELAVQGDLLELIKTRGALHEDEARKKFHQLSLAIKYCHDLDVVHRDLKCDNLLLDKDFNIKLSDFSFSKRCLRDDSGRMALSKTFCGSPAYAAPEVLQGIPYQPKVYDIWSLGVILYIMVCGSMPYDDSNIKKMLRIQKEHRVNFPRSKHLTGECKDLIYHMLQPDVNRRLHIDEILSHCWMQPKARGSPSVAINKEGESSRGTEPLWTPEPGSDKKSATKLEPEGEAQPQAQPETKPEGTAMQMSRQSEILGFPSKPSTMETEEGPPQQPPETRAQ

| Substance | % activity at 100 µM (EGFR(L861Q)(h) (human)) [%] | % activity at 100 µM (EphA5(h) (human)) [%] | % activity at 100 µM (EphA7(h) (human)) [%] | % activity at 100 µM (FGFR1(h) (human)) [%] | % activity at 100 µM (Flt3(D835Y)(h) (human)) [%] | % activity at 100 µM (Flt4(h) (human)) [%] | % activity at 100 µM (IRAK1(h) (human)) [%] | % activity at 100 µM (KDR(h) (human)) [%] | % activity at 100 µM (MST3(h) (human)) [%] | % activity at 100 µM (NLK(h) (human)) [%] | % activity at 100 µM (PAK4(h) (human)) [%] | % activity at 100 µM (PKBα(h) (human)) [%] | % activity at 100 µM (PKCα(h) (human)) [%] | % activity at 100 µM (PKCγ(h) (human)) [%] | % activity at 100 µM (PKCθ(h) (human)) [%] | % activity at 100 µM (Ret(V804M)(h) (human)) [%] | % activity at 100 µM (Src(T341M)(h) (human)) [%] | % activity at 100 µM (TSSK1(h) (human)) [%] |
| --- | --- | --- | --- | --- | --- | --- | --- | --- | --- | --- | --- | --- | --- | --- | --- | --- | --- | --- |
| MMI-0300 (peptide) | 25 | 18 | 159 | 55 | 80 | 83 | 95 | 101 | 45 | 87 | 94 | 57 | 89 | 89 | 88 | 95 | 70 | 79 |
| MMI-0400 (peptide) | 22 | 24 | 222 | 59 | 71 | 89 | 93 | 94 | 36 | 90 | 89 | 67 | 86 | 79 | 76 | 87 | 76 | 79 |
| MMI-0500 (peptide) | 15 | 42 | 189 | 18 | 65 | 73 | 5 | 15 | 4 | 19 | 86 | 30 | 3 | 6 | 62 | 36 | 59 | 46 |
